Measurements from article PMC9935901 (Signal Transduction and Targeted Therapy, 2023).

Target: T1, GST-tagged full-length β-catenin (UniProt P35222 1-781)
T1 construct: β-catenin, full length; also called GST-β-catenin
T1 sequence (looked up): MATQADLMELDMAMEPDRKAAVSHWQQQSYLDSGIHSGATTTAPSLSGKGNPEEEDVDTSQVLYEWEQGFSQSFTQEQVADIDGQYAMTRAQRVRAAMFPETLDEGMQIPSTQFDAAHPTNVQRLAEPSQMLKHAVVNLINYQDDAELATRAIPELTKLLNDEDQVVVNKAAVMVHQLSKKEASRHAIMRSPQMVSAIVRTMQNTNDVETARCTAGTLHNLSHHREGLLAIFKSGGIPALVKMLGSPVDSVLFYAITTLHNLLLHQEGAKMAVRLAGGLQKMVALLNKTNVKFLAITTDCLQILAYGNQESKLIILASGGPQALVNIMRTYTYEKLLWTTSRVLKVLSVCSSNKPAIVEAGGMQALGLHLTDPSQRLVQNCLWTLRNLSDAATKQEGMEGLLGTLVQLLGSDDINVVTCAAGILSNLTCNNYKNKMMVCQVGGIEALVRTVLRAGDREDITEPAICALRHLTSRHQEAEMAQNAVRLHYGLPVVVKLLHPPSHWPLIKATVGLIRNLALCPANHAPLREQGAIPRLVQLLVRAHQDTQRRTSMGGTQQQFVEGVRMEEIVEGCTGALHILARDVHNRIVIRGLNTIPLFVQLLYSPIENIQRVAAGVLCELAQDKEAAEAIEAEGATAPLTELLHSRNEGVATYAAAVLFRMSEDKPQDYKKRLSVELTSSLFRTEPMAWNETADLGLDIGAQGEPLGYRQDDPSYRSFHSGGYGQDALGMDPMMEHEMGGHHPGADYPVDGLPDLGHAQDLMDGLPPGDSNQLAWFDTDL
Test: pull-down; purified GST-tagged full-length β-catenin incubated with purified His-tagged FAM83A, pulled down by GST beads, western blotting
Settings: both partners purified

B1: His-tagged FAM83A (natural protein, UniProt Q86UY5 1-434, looked up)
chain: MSRSRHLGKIRKRLEDVKSQWVRPARADFSDNESARLATDALLDGGSEAYWRVLSQEGEVDFLSSVEAQYIQAQAREPPCPPDTLGGAEAGPKGLDSSSLQSGTYFPVASEGSEPALLHSWASAEKPYLKEKSSATVYFQTVKHNNIRDLVRRCITRTSQVLVILMDVFTDVEIFCDILEAANKRGVFVCVLLDQGGVKLFQEMCDKVQISDSHLKNISIRSVEGEIYCAKSGRKFAGQIREKFIISDWRFVLSGSYSFTWLCGHVHRNILSKFTGQAVELFDEEFRHLYASSKPVMGLKSPRLVAPVPPGAAPANGRLSSSSGSASDRTSSNPFSGRSAGSHPGTRSVSASSGPCSPAAPHPPPPPRFQPHQGPWGAPSPQAHLSPRPHDGPPAAVYSNLGAYRPTRLQLEQLGLVPRLTPTWRPFLQASPHF
notes: FAM83A; also called His-FAM83A
- binding result: binds
